The values that follow come from PMC5993293.

Assay [1] addresses GST-TA3mut (functionally impaired TA3 mutant, aa 361-370 replaced by alanines, fused to GST) (mouse) (UniProt Q04207). Nature of the assay: affinity purification with mass spectrometry; SILAC; GST baits (GST-TA3, GST-TA3mut) immobilised; nuclear extracts of TNF-α-treated HeLa S3 cells or of 3T3 fibroblasts, 4 hours at 4°C; wash 20 mM Hepes pH 7.6, 1 mM EDTA, 10% glycerol, 0.1% NP40, 100 mM KCl; elution with 0.2% sarkosyl; label swap, four biological replicates.
Sequence of UniProt Q04207 (Q04207 other isoform, or with tags, fused parts or gaps, change not shown): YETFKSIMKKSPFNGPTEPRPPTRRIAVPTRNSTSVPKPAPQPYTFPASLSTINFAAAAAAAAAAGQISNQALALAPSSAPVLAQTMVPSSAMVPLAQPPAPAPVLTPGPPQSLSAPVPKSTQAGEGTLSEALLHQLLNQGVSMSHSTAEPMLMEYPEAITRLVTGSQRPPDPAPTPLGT

Assay [2] shares this target. Nature of the assay: pull-down; GST alone, GST-TA3 or GST-TA3mut as baits; transfected HEK-293 cells overexpressing tagged Zbtb7a; Zbtb7a detected by immunoblotting. (In general: Immunoblotting shows a protein as a band on a membrane.)

With “Zbtb7a, endogenous in nuclear extracts of TNF-α-stimulated human HeLa S3 cells (from UniProt O95365 1-584) (natural protein)”, the fold reduction of binding against unmutated TA3 in assay [1] is 5 to 7 times.
The substance “tagged Zbtb7a overexpressed in transfected HEK-293 cells (from UniProt O88939 1-569) (natural protein)” gave a fold reduction of binding against unmutated TA3 in assay [2] of 2 times.
